From PMC3490468
Several values for one entry are separate records, joined by “and”; a condition that tells them apart may be missing. Identical values can stand only once.

Tests used:
[1] = biological target: truncated portal protein cn3 (E25-Q456) of bacteriophage CNPH82 (bacteriophage CNPH82); assay: SEC-MALS; 60 ul of 0.5 mg/ml cn3 on a BioSep SEC-s3000 column; 20 mM Tris pH 7.5, 500 mM NaCl, 10 mM MgCl2; size of the oligomer in solution
[2] = biological target: truncated portal protein cn3 (E25-Q456) of bacteriophage CNPH82 (bacteriophage CNPH82); assay: self-rotation function of X-ray diffraction data; crystal in space group C222(1), data to 4.2 A; MOLREP, resolution range 5-10 A, integration radius 87 A; structure not solved

With “truncated portal protein cn3 (E25-Q456) of bacteriophage CNPH82 (domain or fragment)” the stoichiometry N (subunits per oligomer) [1] was 12.9 and 13 and the stoichiometry N (subunits per oligomer) [2] was 13.
